Legend:
[1] = biological target: D3H44 Fab heavy chain L143E_K145T_S188L, C-terminal ABD2-His6 tag; assay: LCCA: heavy chain co-expressed with two light chains, SPR detection of light chain tags; L1:L2 DNA 1:3, normalized to 1:1; competing light chain m11
[2] = biological target: D3H44 Fab heavy chain L143R, C-terminal ABD2-His6 tag; assay: as above
[3] = biological target: D3H44 Fab heavy chain L143E_K145T_S188L, C-terminal ABD2-His6 tag; assay: LCCA: heavy chain co-expressed with two light chains, SPR detection of light chain tags; L1:L2 DNA 1:9, normalized to 1:1; competing light chain m11
[4] = biological target: D3H44 Fab heavy chain L143R, C-terminal ABD2-His6 tag; assay: as above
[5] = biological target: D3H44 Fab heavy chain L143E_K145T, C-terminal ABD2-His6 tag; assay: LCCA: heavy chain co-expressed with two light chains, SPR detection of light chain tags; L1:L2 DNA 1:3, normalized to 1:1; competing light chain m19
[6] = biological target: D3H44 Fab heavy chain L143R, C-terminal ABD2-His6 tag; assay: as above
[7] = biological target: tissue factor (TF) antigen (UniProt P13726); assay: SPR, Fab captured by anti-penta-His, TF injected, 1:1 fit
[8] = biological target: tissue factor (TF) antigen (UniProt P13726); assay: SPR; log change of median KD against wild-type D3H44 Fab; estimated (*) from a Fab that differs only in the L chain tag
[9] = biological target: tissue factor (TF) antigen (UniProt P13726); assay: SPR, Fab captured by anti-penta-His, TF injected, 1:1 fit; estimated (*) from a Fab that differs only in the L chain tag
[10] = biological target: tissue factor (TF) antigen (UniProt P13726); assay: SPR; log change of median KD against wild-type D3H44 Fab
[11] = biological target: D3H44 Fab heavy chain L143E_K145T, C-terminal ABD2-His6 tag; assay: LCCA: heavy chain co-expressed with two light chains, SPR detection of light chain tags; L1:L2 DNA 1:3, normalized to 1:1; competing light chain m18
[12] = biological target: D3H44 Fab heavy chain L143R, C-terminal ABD2-His6 tag; assay: as above
[13] = biological target: D3H44 Fab heavy chain S186R, ABD2-His6 tagged; assay: LCCA, SPR of light chain tags; L1:L2 DNA 1:3 normalized to 1:1; competing light chain m17
[14] = biological target: D3H44 Fab heavy chain Q179R, ABD2-His6 tagged; assay: as above
[15] = biological target: D3H44 Fab heavy chain Q179K, ABD2-His6 tagged; assay: as above
[16] = biological target: D3H44 Fab heavy chain S186K, ABD2-His6 tagged; assay: as above
[17] = biological target: D3H44 Fab heavy chain L143E_K145T_Q179E, ABD2-His6 tagged; assay: as above
[18] = biological target: D3H44 Fab heavy chain Q179K, ABD2-His6 tagged; assay: LCCA, SPR of light chain tags; L1:L2 DNA 1:9 normalized to 1:1; competing light chain m22
[19] = biological target: D3H44 Fab heavy chain L143E_K145T_Q179E, ABD2-His6 tagged; assay: as above
[20] = biological target: D3H44 Fab heavy chain Q179R, ABD2-His6 tagged; assay: LCCA, SPR of light chain tags; L1:L2 DNA 1:3 normalized to 1:1; competing light chain m21
[21] = biological target: D3H44 Fab heavy chain S186K, ABD2-His6 tagged; assay: as above
[22] = biological target: D3H44 Fab heavy chain L143E_K145T_Q179E, ABD2-His6 tagged; assay: as above
[23] = biological target: D3H44 Fab heavy chain L143R, ABD2-His6 tagged; assay: LCCA, SPR of light chain tags; L1:L2 DNA 1:3 normalized to 1:1; competing light chain m20
[24] = biological target: D3H44 Fab heavy chain L143E_K145T_Q179E, ABD2-His6 tagged; assay: as above
[25] = biological target: D3H44 Fab heavy chain S186K, ABD2-His6 tagged; assay: LCCA, SPR of light chain tags; L1:L2 DNA 1:9 normalized to 1:1; competing light chain m24
[26] = biological target: D3H44 Fab heavy chain L143E_K145T_Q179E, ABD2-His6 tagged; assay: as above
[27] = biological target: D3H44 Fab heavy chain Q179R, ABD2-His6 tagged; assay: LCCA, SPR of light chain tags; L1:L2 DNA 1:9 normalized to 1:1; competing light chain m21
[28] = biological target: D3H44 Fab heavy chain S186K, ABD2-His6 tagged; assay: as above
[29] = biological target: D3H44 Fab heavy chain L143E_K145T_Q179E, ABD2-His6 tagged; assay: as above
[30] = biological target: D3H44 Fab heavy chain S186R, ABD2-His6 tagged; assay: LCCA, SPR of light chain tags; L1:L2 DNA 1:3 normalized to 1:1; competing light chain m19
[31] = biological target: D3H44 Fab heavy chain L143E_K145T_Q179E, ABD2-His6 tagged; assay: as above
[32] = biological target: D3H44 Fab heavy chain S186K, ABD2-His6 tagged; assay: LCCA, SPR of light chain tags; L1:L2 DNA 1:3 normalized to 1:1; competing light chain m24
[33] = biological target: D3H44 Fab heavy chain L143E_K145T_Q179E, ABD2-His6 tagged; assay: as above
[34] = biological target: D3H44 Fab heavy chain S186R, ABD2-His6 tagged; assay: LCCA, SPR of light chain tags; L1:L2 DNA 1:9 normalized to 1:1; competing light chain m17
[35] = biological target: D3H44 Fab heavy chain Q179R, ABD2-His6 tagged; assay: as above
[36] = biological target: D3H44 Fab heavy chain Q179K, ABD2-His6 tagged; assay: as above
[37] = biological target: D3H44 Fab heavy chain S186K, ABD2-His6 tagged; assay: as above
[38] = biological target: D3H44 Fab heavy chain L143E_K145T_Q179E, ABD2-His6 tagged; assay: as above
[39] = biological target: D3H44 Fab heavy chain Q179R, ABD2-His6 tagged; assay: LCCA, SPR of light chain tags; L1:L2 DNA 1:3 normalized to 1:1; competing light chain m22
[40] = biological target: D3H44 Fab heavy chain Q179K, ABD2-His6 tagged; assay: as above
[41] = biological target: D3H44 Fab heavy chain L143E_K145T_Q179E, ABD2-His6 tagged; assay: as above
[42] = biological target: D3H44 Fab heavy chain L143R, ABD2-His6 tagged; assay: LCCA, SPR of light chain tags; L1:L2 DNA 1:9 normalized to 1:1; competing light chain m20
[43] = biological target: D3H44 Fab heavy chain L143E_K145T_Q179E, ABD2-His6 tagged; assay: as above
[44] = biological target: D3H44 Fab heavy chain L143E_K145T, C-terminal ABD2-His6 tag; assay: LCCA: heavy chain co-expressed with two light chains, SPR detection of light chain tags; L1:L2 DNA 1:3, normalized to 1:1; competing light chain m11
[45] = biological target: D3H44 Fab heavy chain S186K, C-terminal ABD2-His6 tag; assay: as above
[46] = biological target: D3H44 Fab heavy chain L143E_K145T, C-terminal ABD2-His6 tag; assay: LCCA: heavy chain co-expressed with two light chains, SPR detection of light chain tags; L1:L2 DNA 1:9, normalized to 1:1; competing light chain m11
[47] = biological target: D3H44 Fab heavy chain S186K, C-terminal ABD2-His6 tag; assay: as above

With “D3H44 light chain Q124E_V133E_S176L, N-terminal HA or FLAG tag” as the substance, how does the H1L1:H1L2 normalized median ratio [1] read?
Its H1L1:H1L2 normalized median ratio is 26%.

What about the H2L2:H2L1 normalized median ratio [2] of the same substance?
Its H2L2:H2L1 normalized median ratio is 94%.

What about the H1L1:H1L2 normalized median ratio [3] of the same substance?
The H1L1:H1L2 normalized median ratio was 14%.

And the H2L2:H2L1 normalized median ratio [4]?
The H2L2:H2L1 normalized median ratio was 79%.

What does the source list for “D3H44 light chain Q124R, N-terminal HA or FLAG tag”?
H1L1:H1L2 normalized median ratio [5]: 85%; H1L1:H1L2 normalized median scalar value ln(r1/f1) [5]: 1.77; H2L2:H2L1 normalized median ratio [6]: 12%

Which Kd [7] does the source give for “H1L1 Fab heterodimer of LCCA sets 9589, 9587, 9588 and 9585 (D3H44 Fab, H1 L143E_K145T, L1 Q124R)” here?
Its Kd is 0.28 nM.

What about the Change in median values of KD of h1l1 Fab heterodimer compared to wild type (-(log(KD design)-log(KD wt))) [8] of the same substance?
Its Change in median values of KD of h1l1 Fab heterodimer compared to wild type (-(log(KD design)-log(KD wt))) is -0.25 log units.

What about the Kd [9] of the same substance?
Its Kd is 0.28 nM.

What about the Change in median values of KD of h1l1 Fab heterodimer compared to wild type (-(log(KD design)-log(KD wt))) [10] of the same substance?
Its Change in median values of KD of h1l1 Fab heterodimer compared to wild type (-(log(KD design)-log(KD wt))) is -0.25 log units.

What does the source list for “D3H44 light chain Q124E_V133E_Q160M, N-terminal HA or FLAG tag”?
H1L1:H1L2 normalized median ratio [11]: 15%; H2L2:H2L1 normalized median ratio [12]: 88%

Which results are given for “D3H44 light chain Q124R_T178R, HA or FLAG tagged”?
H2L2:H2L1 normalized median ratio [13]: 6%; H2L2:H2L1 normalized median ratio [14]: 5%; H2L2:H2L1 normalized median ratio [15]: 5%; H2L2:H2L1 normalized median ratio [16]: 2%; H1L1:H1L2 normalized median ratio [17]: 91%; H1L1:H1L2 normalized median scalar value ln(r1/f1) [17]: 2.29; H2L2:H2L1 normalized median ratio [18]: 11%; H1L1:H1L2 normalized median ratio [19]: 85%; H1L1:H1L2 normalized median scalar value ln(r1/f1) [19]: 1.77; H2L2:H2L1 normalized median ratio [20]: 6%; H2L2:H2L1 normalized median ratio [21]: 5%; H1L1:H1L2 normalized median ratio [22]: 92%; H1L1:H1L2 normalized median scalar value ln(r1/f1) [22]: 2.46; H2L2:H2L1 normalized median ratio [23]: 5%; H1L1:H1L2 normalized median ratio [24]: 93%; H1L1:H1L2 normalized median scalar value ln(r1/f1) [24]: 2.62; H2L2:H2L1 normalized median ratio [25]: 6%; H1L1:H1L2 normalized median ratio [26]: 78%; H1L1:H1L2 normalized median scalar value ln(r1/f1) [26]: 1.29; H2L2:H2L1 normalized median ratio [27]: 10%; H2L2:H2L1 normalized median ratio [28]: 11%; H1L1:H1L2 normalized median ratio [29]: 92%; H1L1:H1L2 normalized median scalar value ln(r1/f1) [29]: 2.45; H2L2:H2L1 normalized median ratio [30]: 4%; H1L1:H1L2 normalized median ratio [31]: 85%; H1L1:H1L2 normalized median scalar value ln(r1/f1) [31]: 1.75; H2L2:H2L1 normalized median ratio [32]: 6%; H1L1:H1L2 normalized median ratio [33]: 91%; H1L1:H1L2 normalized median scalar value ln(r1/f1) [33]: 2.27; H2L2:H2L1 normalized median ratio [34]: 13%; H2L2:H2L1 normalized median ratio [35]: 14%; H2L2:H2L1 normalized median ratio [36]: 16%; H2L2:H2L1 normalized median ratio [37]: 10%; H1L1:H1L2 normalized median ratio [38]: 90%; H1L1:H1L2 normalized median scalar value ln(r1/f1) [38]: 2.18; H2L2:H2L1 normalized median ratio [39]: 3%; H2L2:H2L1 normalized median ratio [40]: 4%; H1L1:H1L2 normalized median ratio [41]: 86%; H1L1:H1L2 normalized median scalar value ln(r1/f1) [41]: 1.83; H2L2:H2L1 normalized median ratio [42]: 11%; H1L1:H1L2 normalized median ratio [43]: 92%; H1L1:H1L2 normalized median scalar value ln(r1/f1) [43]: 2.45

With “D3H44 light chain Q124E_T178E_T180E, N-terminal HA or FLAG tag” as the substance, how does the H1L1:H1L2 normalized median ratio [44] read?
The H1L1:H1L2 normalized median ratio was 18%.

And the H2L2:H2L1 normalized median ratio [45]?
Its H2L2:H2L1 normalized median ratio is 91%.

And the H1L1:H1L2 normalized median ratio [46]?
Its H1L1:H1L2 normalized median ratio is 19%.

What about the H2L2:H2L1 normalized median ratio [47] of the same substance?
The H2L2:H2L1 normalized median ratio was 90%.

Source: patent publication US11306156
